Experimental data taken from publication PMC2847151 (2009).

Key:
Lck SH3 = target: T1, Lck SH3 (Homo sapiens, UniProt P06239); test: fluorescence titration
T1 chain: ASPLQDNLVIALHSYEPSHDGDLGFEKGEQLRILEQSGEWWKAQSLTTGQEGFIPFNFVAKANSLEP

Abl SH3 = Abl SH3 (Homo sapiens, UniProt P00519); test: fluorescence titration
Abl SH3, sequence (P00519 58-124): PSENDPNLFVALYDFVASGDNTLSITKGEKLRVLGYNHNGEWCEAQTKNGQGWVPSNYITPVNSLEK

Kd (Lck SH3): 33.5 µM | Kd (Abl SH3): 2.37 µM
B1: MED25 (peptide)
chain: Ac-QLPPGPPGAPKPPPAS-NH2
